From PMC4012616

Assays:
Experiment in all cases: MST
[1] = target: H3K9me1 MLA (Methyl Lysine Analog) histone H3 (UniProt P84233)
[2] = target: H3K9me2 MLA (Methyl Lysine Analog) histone H3 (UniProt P84233)
[3] = target: H3K9me3 MLA (Methyl Lysine Analog) histone H3 (UniProt P84233)

EAP-1 chromodomain fused to GST (EAP-1chromo) (domain or fragment)
Kd [1]: 6140 nM
Kd [2]: 2050 nM
Kd [3]: 157 nM
